Target: native BnFMO, flavin monooxygenase from Bacillus niacini (Bacillus niacini)
Experiment: cryo-EM structure

Substance: native BnFMO, flavin monooxygenase from Bacillus niacini (enzyme)
- stoichiometry N: 3

From publication PMC11686404
